The values below come from patent publication US20250250357A1 (NANJING ZAIMING PHARMACEUTICAL, published 2025).

Test [1] addresses T1, human MSLN-R3-his protein (human, UniProt Q13421 487-598).
T1 construct: it is put last here; also called human MSLN-R3 protein; hMSLN-R3-his; not shown: His tag
Kind of test: ELISA on coated antigen, antibody 2 nM. A general note: ELISA stands for enzyme-linked immunosorbent assay.

The target of test [2] is T1, human MSLN-R3-his protein. Description: ELISA on coated antigen, antibody 200 nM.
Test [3] addresses T2, human MSLN-R2-his protein (human, UniProt Q13421 391-486).
T2 construct: it is put last here; also called human MSLN-R2 protein; hMSLN-R2-his; not shown: His tag
Kind of test: ELISA on coated antigen, antibody 0.2 nM.

Test [4] deals with T2, human MSLN-R2-his protein. Kind of test: ELISA on coated antigen, antibody 0.02 nM.
For test [5], the target named is T1, human MSLN-R3-his protein. Description: ELISA on coated antigen, antibody 20 nM.
Experimental: (§1) The plate was sealed with a plastic film and incubated at 4° C. overnight. The next day, the plate was washed twice with PBST, and a blocking buffer [PBS+2% (w/w) BSA] was added for blocking at room temperature for 2 h. The blocking buffer was discarded, and a chimeric antibody or negative control antibody serially diluted from 100 nM was added at 50 μL/well. After incubation at 37° C. for 2 h, the plate was washed 3 times with PBST. […] After incubation at 37° C. for 2 h, the plate was washed 5 times with PBST. A TMB substrate was added at 50 μL/well for incubation at room temperature for 5-10 min, and then a stop solution (1.0 N HCl) was added at 50 μL/well.
The target in test [6] is T2, human MSLN-R2-his protein. Description: ELISA on coated antigen, antibody 0.002 nM.
Experimental: as §1
Test [7] deals with T2, human MSLN-R2-his protein. Description: ELISA on coated antigen, antibody 20 nM.
Experimental: as §1
Test [8] concerns the target T1, human MSLN-R3-his protein. Description: ELISA on coated antigen, antibody 0.0002 nM.
For test [9], the target named is T2, human MSLN-R2-his protein. Description: ELISA on coated antigen, antibody 0.0002 nM.
Experimental: as §1
In test [10] the target is T1, human MSLN-R3-his protein. Kind of test: ELISA on coated antigen, antibody 0.02 nM.
Test [11] concerns the target T2, human MSLN-R2-his protein. Description: ELISA on coated antigen, antibody 2 nM.
In test [12] the target is T2, human MSLN-R2-his protein. Description: ELISA on coated antigen, no antibody (blank, column 'none').
Experimental: as §1
In test [13] the target is T1, human MSLN-R3-his protein. Description: ELISA on coated antigen, antibody 0.2 nM.
The target in test [14] is T2, human MSLN-R2-his protein. Kind of test: ELISA on coated antigen, antibody 200 nM.
In test [15] the target is T1, human MSLN-R3-his protein. Kind of test: ELISA on coated antigen, no antibody (blank, column 'none').
Experimental: as §1
Test [16] concerns the target T1, human MSLN-R3-his protein. Description: ELISA on coated antigen, antibody 0.002 nM.
Experimental: as §1

T1 sequence (Q13421 495-606): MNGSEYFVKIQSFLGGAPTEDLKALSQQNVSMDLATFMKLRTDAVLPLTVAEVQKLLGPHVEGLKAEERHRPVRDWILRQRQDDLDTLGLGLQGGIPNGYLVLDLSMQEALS
T2 sequence (Q13421 other isoform, or with tags, fused parts or gaps): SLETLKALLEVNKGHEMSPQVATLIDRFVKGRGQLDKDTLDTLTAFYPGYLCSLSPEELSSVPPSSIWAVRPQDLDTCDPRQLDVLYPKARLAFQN

B1: S009-F7.18.10 (antibody, human IgG1, kappa, V domains shown)
VH: QVQLQQSGAELVRPGTSVKVSCKASGYAFTNYLIEWVKQRPGQGLEWIGVINPGSGGTKYNEKFKGKATLTADKSSSTAYMQLSSLTSEDSAVYFCASDYDYDPFAYWGQGTLVTVSA
VL: DIVMTQSHKFMSTSVGDRVSITCKASQDVSTAVAWYQRKPGQSPKLLIYWASTRHTGVPDRFTGSGSGTDYTLTISYMQAEDLALYYCQQHYSTPYTFGGGTKLEIKR
notes: Human-murine chimeric antibody, human IgG1 heavy and kappa light constant regions
For B1, the OD450 was found to be 0.07 OD in test [1]; 0.29 OD in test [2]; 0.06 OD in test [3]; 0.05 OD in test [4]; 0.14 OD in test [5]; 0.05 OD in [6]. Besides, the OD450 turned out to be 0.09 OD in [7]; 0.05 OD in test [8]; 0.05 OD in test [9]; 0.05 OD in test [10]; 0.09 OD in [11]; 0.06 OD in test [12]. In addition, the OD450 was 0.06 OD in test [13], 0.14 OD in [14], 0.07 OD in test [15] and 0.05 OD in test [16].

B2: S009-F7.11.11 (antibody, human IgG1, kappa, V domains shown)
VH: EVQLQQSGPELVKPGASVKIPCKASGYTITDYNMDWVKQSRGKSLEWIGDVFPYNGDSIYNQKFEGRATLTVDKYSSTAYMELRGLTSEDTAVYFCARRKTGTGYFDVWGTGTTVTVSS
VL: QLVLTQSPAIMSASPGEKVTLTCSASSSVSSTYLSWYLQKPGSSPKLWIYSTSNLASGVPARFSGSGSGTSYSLTISSMEAEDAASYFCHQWSSYPYTFGGGTKLEIKR
notes: as for B1
For the molecule B2, the OD450 was determined as 2.41 OD in test [1]; 3.12 OD in test [2]; 0.05 OD in test [3]; 0.05 OD in test [4]; 2.58 OD in test [5]; 0.05 OD in test [6]. For the same molecule, the OD450 amounted to 0.06 OD in [7]; 0.06 OD in [8]; 0.05 OD in [9]; 0.32 OD in test [10]; 0.05 OD in [11]; 0.06 OD in test [12]. Also, the OD450 amounted to 1.37 OD in test [13], 0.07 OD in [14], 0.06 OD in test [15] and 0.09 OD in test [16].

B3: S009-F7.12.13 (antibody, human IgG1, kappa, V domains shown)
VH: EVQLQQSGPELVKPGASVKIPCKASGYTFTDYNMDWVKQSHGKGLEWIGDINPNTDDTIYNQKFNGKATLTVDKSSSTAYMELRSLTSEDTAVYYCSRRLIGTGYFDVWGTGTTVTVSS
VL: QIVLTQSPAIMSASPGEKVTLTCSASSSVISTYLCWYRQKPGSSPELWIYSTSNLASGVPARFSGSGSGTSYSLTISSMEAEDAASYFCHQWSNYPYTFGGGTKLGMKR
notes: as for B1
For B3, the OD450 in test [1] is 2.48 OD; in test [2], 2.96 OD; in test [3], 0.05 OD; in test [4] it was 0.05 OD; in test [5], 2.67 OD; in [6] it was 0.05 OD. Also, the OD450 came out at 0.06 OD in test [7]; 0.06 OD in test [8]; 0.05 OD in [9]; 0.36 OD in [10]; 0.05 OD in [11]; 0.06 OD in test [12]. In addition, the OD450 in test [13] was 1.67 OD; in [14], 0.08 OD; in test [15] it was 0.06 OD; in [16] it was 0.15 OD.

B4: S009-F7.25.19 (antibody, human IgG1, kappa, V domains shown)
VH: QVQLQQPGTELVKPGASVKLSCKASGYTFTSYWMHWVKQRPGQGLEWIGNIIPSNGGTKYNEKFKSKATLTVDKSSSTAYMQLSSLTSEDSAVYYCSPHYYGGSPGFAYWGQGTLITVSA
VL: DIVMTQSQKFMSTSVGDRVSVICKASQNVGTNVAWYQQKPGQSPKALIYSASYRYSGVPDRFTGSGSGTDFTLTISNVQSEDLAEYFCQQYNSYPLTFGGGTKLEIKR
notes: as for B1
On to B4, for which the OD450 came to 2.76 OD in [1]; 2.83 OD in test [2]; 0.05 OD in [3]; 0.05 OD in test [4]; 2.71 OD in test [5]; 0.05 OD in test [6]. The OD450 is 0.09 OD in test [7]; 0.3 OD in test [8]; 0.05 OD in test [9]; 1.81 OD in test [10]; 0.06 OD in [11]; 0.06 OD in [12]. Further, the OD450 in test [13] stood at 2.6 OD; in test [14], 0.31 OD; in test [15] it was 0.07 OD; in test [16], 0.9 OD.

B5: S009-F7.26.15 (antibody, human IgG1, kappa, V domains shown)
VH: DVQLQESGPGLVKPSQTVFLTCTVTGISITTGNYRWSWIRQFPGNKLEWIGYIYYTGFITYNPSLTSRTTITRDTPKNQFFLEMKSLTAEDTATYYCARDDYDYDVFAYWGQGTLVTVSA
VL: DIQMTQSPASLSASVGETVTITCRASGNIHNYLAWYHQKQGKSPQFLVYKAKTLADGVPSRFSGSGSGTQYSLKINRLQPEDFGSYYCQHFLSIPLTFGAGTKLELKR
notes: as for B1
Take B5: the OD450 in test [1] was 2.79 OD; in [2] it was 2.74 OD; in [3], 0.05 OD; in [4], 0.05 OD; in test [5], 2.73 OD; in test [6], 0.05 OD. The OD450 in [7] worked out at 0.08 OD; in [8], 0.16 OD; in [9], 0.05 OD; in test [10], 1.63 OD; in test [11], 0.05 OD; in test [12] it was 0.06 OD. Also, the OD450 was 2.45 OD in test [13], 0.18 OD in [14], 0.07 OD in [15] and 0.6 OD in [16].

B6: S009-F7.6.17 (antibody, human IgG1, kappa, V domains shown)
VH: QVQLQQSGAELARPGASVKMSCKASGYTFTTYTMHWVKQRPGQGLEWIGYISPTGDFTKYNQKFKDKATLTTDKSSNTAFMQLSSLTSEDSAVYYCARWNGTVWFAYWGQGTLVTVSA
VL: DIVMTQSQKFMSTSVGDRVTVTCKASQALGTNVAWYQQKPGQSPKVLIYSASYRYSGVPYRFAGGGSGTDFTLTITNVQSEDLAEYFCQQYNNYPLTFGAGTKLELKR
notes: as for B1
Take B6: the OD450 in test [1] is 2.86 OD; in test [2] it was 3.1 OD; in [3], 0.05 OD; in test [4], 0.05 OD; in [5], 2.81 OD; in [6], 0.05 OD. In addition, the OD450 in test [7] came to 0.07 OD; in test [8] it was 0.13 OD; in test [9], 0.05 OD; in [10] it was 1.55 OD; in test [11], 0.05 OD; in [12], 0.06 OD. Moreover, the OD450 in test [13] is 2.64 OD; in test [14], 0.13 OD; in [15], 0.08 OD; in test [16], 0.56 OD.

B7: S009-F7.23.19 (antibody, human IgG1, kappa, V domains shown)
VH: EVKLVESGGGLVQPGGSLSLSCAASGFTFTDYYMSWVRQPPGKALEWLGFIRSKANAYTTEYSASVKGRFTISRDNSQSILYLQMNDLRAEDSATYYCARYYYYGSGYVWYFDVWGTGTTVTVSS
VL: DIVMTQSQKFMSTSVGDRVSVTCKASQSVGTNVAWYQQKPGQFPKALIYSASYRYSGVPDRFTGSGSGTDFTLTIINVQSEDLAEYFCQQYNSYPLTFGAGTKLELKR
notes: as for B1
As to B7, the OD450 in test [1] was 2.52 OD; in test [2], 2.77 OD; in [3], 0.05 OD; in test [4] it was 0.05 OD; in [5], 2.63 OD; in test [6], 0.05 OD. Further, the OD450 amounted to 0.05 OD in test [7]; 0.08 OD in test [8]; 0.14 OD in test [9]; 0.88 OD in test [10]; 0.05 OD in test [11]; 0.06 OD in [12]. Also, the OD450 in test [13] is 1.9 OD; in test [14], 0.09 OD; in [15] it was 0.09 OD; in [16], 0.25 OD.
